From US20240384250A1, “FIBROBLAST GROWTH FACTOR 23 MODULATING COMPOUNDS” (THE UAB RESEARCH FOUNDATION, priority 2021, published 2024) come the findings set out here.

The target of the experiment is recombinant FGF23 protein (species not stated for the assay). Nature of the experiment: sKL detection assay (sandwich): FGF23 coated, sKL sample, then Fc-FGFR1c, anti-Fc-HRP, A450.

As for “FLAG-tagged soluble klotho (sKL) (receptor)”, the fold binding activity against Com.sKL was 7 fold.
